Measured values from patent publication US20210107958A1, “GLYPICAN EPITOPES AND USES THEREOF” (MINOMIC INTERNATIONAL LTD., priority 2015, published 2021).

Assays:
Type in all cases: binding
[1] = target: T1, glypican-1 core protein (Homo sapiens, UniProt P35052); assay: 2D electrophoresis and western blotting of DU-145 MPEK extracts
T1 construct: endogenous in cells; host or cells: DU-145 prostate cancer cells (membrane protein extract)
T1 sequence (P35052 24-558): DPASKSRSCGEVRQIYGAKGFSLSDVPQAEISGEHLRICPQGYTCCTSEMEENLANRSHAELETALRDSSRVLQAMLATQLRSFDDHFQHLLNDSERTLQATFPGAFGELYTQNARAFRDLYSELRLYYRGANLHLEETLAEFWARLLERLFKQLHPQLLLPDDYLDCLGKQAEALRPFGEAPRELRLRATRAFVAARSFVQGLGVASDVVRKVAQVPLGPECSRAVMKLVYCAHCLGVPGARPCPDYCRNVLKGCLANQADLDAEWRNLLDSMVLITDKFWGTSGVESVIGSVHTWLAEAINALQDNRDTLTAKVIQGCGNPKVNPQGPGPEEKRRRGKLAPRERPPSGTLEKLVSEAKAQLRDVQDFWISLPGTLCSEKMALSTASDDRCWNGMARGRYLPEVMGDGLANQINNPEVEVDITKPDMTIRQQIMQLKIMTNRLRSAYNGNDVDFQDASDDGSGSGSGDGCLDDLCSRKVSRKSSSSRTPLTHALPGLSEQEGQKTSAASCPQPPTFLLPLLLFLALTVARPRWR
From the text: To confirm that MIL38 recognized glypican-1, prostate cancer DU-145 MPEK extracts were subjected to 2D electrophoresis and western blotting.
Membrane protein extracts (MPEK) of DU-145 prostate cancer cells were separated on 2D gel (pI gradient-horizontal, and molecular mass vertical). Western blots using MIL38 antibody and commercial rGPC-1 rabbit polyclonal antibodies show overlapping reactivity marking a 60Kd protein (circled in FIG. 14). Lane D (FIG. 14) is a one dimension separation for DU-145 extracts as a control. Lane M (FIG. 14) is a one dimension separation lane for molecular size markers as controls.

[2] = tested on: human glypican-1 (GPC-1); assay: PEPSCAN-based ELISA on linear and CLIPS peptide arrays (sets 1-5) spanning GPC-1
From the text: The following human glypican-1 (GPC-1) sequence was used as a basis to generate a library of structured peptides.
To reconstruct discontinuous epitopes of the target molecule a library of structured peptides was synthesized. This was done using Chemically Linked Peptides on Scaffolds (CLIPS) technology. CLIPS technology allowed the generation of structured peptides in single loops, double-loops, triple loops, sheet-like folds, helix-like folds and combinations thereof. CLIPS templates were coupled to cysteine residues. The side-chains of multiple cysteines in the peptides were coupled to one or two CLIPS templates. For example, a 0.5 mM solution of the T2 CLIPS template 1,3-bis (bromomethyl) benzene was dissolved in ammonium bicarbonate (20 mM, pH 7.9)/acetonitrile (1:1(v/v)). This solution was added onto the peptide arrays. The CLIPS template bound to side-chains of two cysteines as present in the solid-phase bound peptides of the peptide-arrays (455 wells plate with 3 μl wells). The peptide arrays were gently shaken in the solution for 30 to 60 minutes while completely covered in solution. Finally, the peptide arrays were washed extensively with excess of H2O and sonicated in disrupt-buffer containing 1 percent SDS/0.1 percent beta-mercaptoethanol in PBS (pH 7.2) at 70° C. for 30 minutes, followed by sonication in H2O for another 45 minutes. The T3 CLIPS carrying peptides were made in a similar way but with three cysteines.
The binding of antibody to each of the synthesized peptides was tested in a PEPSCAN-based ELISA. The peptide arrays were incubated with primary antibody solution (overnight at 4° C.). […] After one hour, the color development was measured. The color development was quantified with a charge coupled device (CCD)-camera and an image processing system.
The values obtained from the CCD camera ranged from 0 to 3000 mAU, similar to a standard 96-well plate ELISA-reader. The results were quantified and stored in the Peplab database. […] The cards were manually inspected and any values caused by an air-bubble were scored as 0. […]

[3] = target: T2, MIL38 antigen (Homo sapiens, UniProt P35052); assay: Western blot of membrane protein extracts from normal prostate and prostate cancer; conditions: equivalent amounts of protein
T2 construct: tissue Novus Bio; host or cells: membrane protein extracts of normal prostate and prostate cancer
T2 sequence (P35052 24-558): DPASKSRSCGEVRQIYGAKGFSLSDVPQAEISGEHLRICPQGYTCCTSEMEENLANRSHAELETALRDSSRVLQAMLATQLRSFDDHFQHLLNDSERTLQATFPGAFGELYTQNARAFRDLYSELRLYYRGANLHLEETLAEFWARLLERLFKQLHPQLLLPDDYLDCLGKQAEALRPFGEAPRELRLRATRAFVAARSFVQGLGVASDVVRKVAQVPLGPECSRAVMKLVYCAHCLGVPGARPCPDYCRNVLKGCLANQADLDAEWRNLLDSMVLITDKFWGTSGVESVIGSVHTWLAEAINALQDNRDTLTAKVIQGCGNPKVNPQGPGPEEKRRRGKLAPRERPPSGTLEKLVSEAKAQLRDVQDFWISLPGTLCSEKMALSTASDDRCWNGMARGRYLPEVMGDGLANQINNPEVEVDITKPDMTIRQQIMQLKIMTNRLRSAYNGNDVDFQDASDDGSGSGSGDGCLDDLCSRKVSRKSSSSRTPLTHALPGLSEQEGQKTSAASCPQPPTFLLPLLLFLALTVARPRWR
From the text: To determine if MIL38 antigen could be detected in membrane protein extracts from normal prostate and prostate cancer, one sample of each was obtained from Novus Bio. Equivalent amounts of protein were western blotted using MIL38 antibody (FIG. 16B).

[4] = target: T3, glypican-1 (Homo sapiens, UniProt P35052); assay: MIL38 immunoprecipitation and western blot of plasma samples (normal and prostate cancer patient)
T3 construct: from tissue; host or cells: human plasma (patients 042 and 046), with or without heparinase treatment
T3 sequence (P35052 24-530 limits assumed): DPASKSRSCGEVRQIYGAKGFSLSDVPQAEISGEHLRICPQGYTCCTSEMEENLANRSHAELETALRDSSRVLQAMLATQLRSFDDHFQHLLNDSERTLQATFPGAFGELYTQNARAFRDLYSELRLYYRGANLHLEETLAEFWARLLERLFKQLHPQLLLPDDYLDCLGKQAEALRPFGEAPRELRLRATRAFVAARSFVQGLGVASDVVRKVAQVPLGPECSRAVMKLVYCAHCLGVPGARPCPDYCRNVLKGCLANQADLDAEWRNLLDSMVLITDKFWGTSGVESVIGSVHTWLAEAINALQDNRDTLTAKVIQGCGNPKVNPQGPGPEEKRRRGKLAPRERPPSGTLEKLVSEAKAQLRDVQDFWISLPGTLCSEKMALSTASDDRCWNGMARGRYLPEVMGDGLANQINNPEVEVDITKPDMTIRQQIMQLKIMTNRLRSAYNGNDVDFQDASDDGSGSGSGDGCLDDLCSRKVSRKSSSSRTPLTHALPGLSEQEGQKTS
From the text: Plasma samples from one normal patient (042) and one prostate cancer patient (046) were immunoprecipitated with MIL38 antibody and the IP sample western blotted with MIL38 and anti-GPC-1 antibodies (FIG. 16A).

[5] = target: T4, glypican-1 (Homo sapiens, UniProt P35052); assay: Immunoprecipitation and western blot of DU-145 or C3 (MIL38 negative) MPEK extracts
T4 construct: endogenous in cells; host or cells: DU-145 prostate cancer cells (membrane protein extract)
T4 sequence (P35052 24-558): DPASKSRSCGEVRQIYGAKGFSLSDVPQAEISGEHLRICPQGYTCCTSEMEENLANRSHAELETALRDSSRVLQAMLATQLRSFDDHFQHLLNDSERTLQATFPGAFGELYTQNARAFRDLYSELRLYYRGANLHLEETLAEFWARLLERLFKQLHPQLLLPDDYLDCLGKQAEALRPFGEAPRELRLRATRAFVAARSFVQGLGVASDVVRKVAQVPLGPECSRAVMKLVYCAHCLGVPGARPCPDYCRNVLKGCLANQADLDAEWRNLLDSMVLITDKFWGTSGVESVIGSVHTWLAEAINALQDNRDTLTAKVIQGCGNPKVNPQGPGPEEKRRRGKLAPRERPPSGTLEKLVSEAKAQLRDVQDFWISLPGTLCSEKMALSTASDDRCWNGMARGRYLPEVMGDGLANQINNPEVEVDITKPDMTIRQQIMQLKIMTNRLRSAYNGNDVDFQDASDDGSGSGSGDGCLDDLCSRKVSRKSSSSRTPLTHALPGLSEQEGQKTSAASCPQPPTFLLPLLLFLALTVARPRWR
From the text: MIL38 or rabbit anti-GPC-1 antibodies were used to immunoprecipitate their respective antigens from DU-145 or C3 (MIL38 negative) MPEK extracts. The immunoprecipitates (IPs) were western blotted with either MIL38 or anti-GPC-1 antibody (FIG. 15).
MIL38 and rabbit anti-GPC-1 antibodies were each used to immunoprecipitate their antigens from DU-145 prostate cancer or C3 (MIL38 negative) cell membrane protein extracts. Shown are the western blots of the immunoprecipitations detected with either MIL38 or anti-GPC-1 antibody. FIG. 15A depicts GPC1 detection of MIL38 immunoprecipitates (left) and MIL38 detection of GPC1 immunoprecipitates (right). FIG. 15B depicts MIL38 detection of MIL38 immunoprecipitates as a control. Lanes are: Magic Mark-commercial protein marker as control; DU145 MPEK-prostate cancer membrane protein extract (not immunoprecipitated); DU145 FT-prostate cancer flow through from immune precipitation; DU145 IP-immunoprecipitate using antibody; C3 MPEK-(MIL38 negative) control membrane protein extract (not immunoprecipitated); C3 FT-flow through from immune precipitation; C3 IP elution-(MIL38 negative) immunoprecipitate using antibody. MIL38 can detect the immunoprecipitate from rGPC1 antibody and vice versa. MIL38 can also bind to all controls including DU145 MPEK and to IP conducted by MIL38.

B1: MIL38-AM4: Murine anti human glypican 1 monoclonal antibody produced by hybridoma cells deposited at Cellbank Australia under accession number CBA20140026 (antibody)
heavy: QIQLVQSGPELKKPGETVKISCKASGYAFTDYSMNWVKQAPGKGLRWMGWINTETGEPTYTDDFKGRFAFSLETSASTAFLQINNLRNEDTATYFCARHYDYGGFPYWGQGTLVTVSAAKTTPPSVYPLAPGSAAQTNSMVTLGCLVKGYFPEPVTVTWNSGSLSSGVHTFPAVLQSDLYTLSSSVTVPSSTWPSETVTCNVAHPASSTKVDKKIVPRDCGCKPCICTVPEVSSVFIFPPKPKDVLTITLTPKVTCVVVDISKDDPEVQFSWFVDDVEVHTAQTQPREEQFNSTFRSVSELPIMHQDWLNGKEFKCRVNSAAFPAPIEKTISKTKGRPKAPQVYTIPPPKEQMAKDKVSLTCMITDFFPEDITVEWQWNGQPAENYKNTQPIMDTDGSYFVYSKLNVQKSNWEAGNTFTCSVLHEGLHNHHTEKSLSHSPGK
light: DIQMTQSPASLSASVGETVTITCRASGNVHNYLAWYQQKQGKSPQLLVYTAKTLADGVPSRFSGSGSGTQYSLKINSLQPEDFGTYYCQHFWSNPWTFGGGTKLEIKRADAAPTVSIFPPSSEQLTSGGASVVCFLNNFYPKDINVKWKIDGSERQNGVLNSWTDQDSKDSTYSMSSTLTLTKDEYERHNSYTCEATHKTSTSPIVKSFNRNEC
- molecular weight of protein detected [1]: 60 kDa
- ELISA response versus antibody concentration ([2]; 1 μg/ml and 10 μg/ml, normal stringency): concentration dependent response
- saturation of ELISA signal ([2]; 10 μg/ml): saturation was not observed
- stretches / common cores of GPC-1 recognized on the peptide arrays ([2]; peptide sets 1-5 (linear, loop, helical, sheet)): 135TQNARAFRD143 (SEQ ID NO: 7) and 348[…]358 (SEQ ID NO: 2)
- expression of MIL38 antigen in prostate cancer extract versus normal prostate sample [3]: much higher
- specific bands detected in plasma immunoprecipitates ([4]; MIL38 IP of both plasma samples): approx. 70 kDa
- signal in prostate cancer patient plasma compared to normal patient plasma ([4]; patient 046 vs 042): markedly higher
- depletion of MIL38 and anti-GPC-1 antigens by immunoprecipitation ([5]; DU-145 MPEK flow through): almost complete depletion
- reactive band detected in the other antibody's immunoprecipitate ([5]; DU-145 MPEK, IP with one antibody, blot with the other): 60 kDa
